Data on 6 molecules can be found in article PMC7570871, “Evaluation of a New ^177Lu-Labeled Somatostatin Analog for the Treatment of Tumors Expressing Somatostatin Receptor Subtypes 2 and 5” (Molecules, 2020).

The format of data set [1] is physicochemical. The following applies: pH 7.4. How it is done: To a pre-saturated mixture of 500 µL 1-octanol and 500 µL of phosphate-buffered saline (PBS) (pH 7.4), 10 µL of 1 µM of the ^177Lu-labeled conjugates were added. The solution was vortexed for 1 h to reach the equilibrium and then centrifuged (3000 rpm) for 10 min. From each phase, 100 µL of the aliquot was removed and measured in a γ-counter. Each measurement was repeated three times. Care was taken to avoid cross-contamination between the phases. The partition coefficient was calculated as the average of the logarithmic values (n = 3) of the ratio between the radioactivity in the organic and the PBS phase.

The next data set addresses T1, human SST5 (Homo sapiens, UniProt P35346).
T1 construct: expressed in transfected cells; host or cells: HEK cells (HEK-SST5), stably transfected
Briefly: Competition binding assay with 125I-SS-14 on membranes of HEK-SST5 cells. Particulars: 125I-SS-14 radioligand. As for the experimental part:
(§1) Human Embryonic Kidney (HEK) cells were stably transfected with plasmids encoding the human SST2 and SST5 (HEK-SST2 and HEK-SST5) and cultivated as previously described. […] Nontransfected HEK cells were used as negative control.
(§2) Binding assays were performed as described previously.

The target of data set [2] is T2, human SST2 (Homo sapiens, UniProt P30874).
T2 construct: expressed in transfected cells; host or cells: HEK cells (HEK-SST2), stably transfected
Briefly: Competition binding assay with 125I-SS-14 on membranes of HEK-SST2 cells. Particulars: 125I-SS-14 radioligand. How it is done: as §1, §2

Data set [3] deals with T2, human SST2. Further details: method as in PMID 32757150. Particulars: HEK-SST2 membranes, 125I-SS-14 radioligand; cited from earlier work.
In data set [4] the test system is dual SST2- and SST5-expressing xenografts. The following applies: use of basic amino acids; reference not given; cited from earlier work.

Like-named read-outs stand apart in the source and are kept apart here.

T2 sequence (P30874 whole entry): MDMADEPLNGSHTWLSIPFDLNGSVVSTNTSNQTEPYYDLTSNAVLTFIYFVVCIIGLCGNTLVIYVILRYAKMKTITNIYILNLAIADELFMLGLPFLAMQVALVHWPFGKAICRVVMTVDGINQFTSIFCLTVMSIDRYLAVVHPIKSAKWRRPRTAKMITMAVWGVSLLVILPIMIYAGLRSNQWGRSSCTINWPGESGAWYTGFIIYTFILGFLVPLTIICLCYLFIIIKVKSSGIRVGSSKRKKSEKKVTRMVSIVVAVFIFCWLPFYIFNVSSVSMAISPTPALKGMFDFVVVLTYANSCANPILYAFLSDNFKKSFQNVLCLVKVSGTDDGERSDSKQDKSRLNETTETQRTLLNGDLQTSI
T1 sequence (P35346 whole entry): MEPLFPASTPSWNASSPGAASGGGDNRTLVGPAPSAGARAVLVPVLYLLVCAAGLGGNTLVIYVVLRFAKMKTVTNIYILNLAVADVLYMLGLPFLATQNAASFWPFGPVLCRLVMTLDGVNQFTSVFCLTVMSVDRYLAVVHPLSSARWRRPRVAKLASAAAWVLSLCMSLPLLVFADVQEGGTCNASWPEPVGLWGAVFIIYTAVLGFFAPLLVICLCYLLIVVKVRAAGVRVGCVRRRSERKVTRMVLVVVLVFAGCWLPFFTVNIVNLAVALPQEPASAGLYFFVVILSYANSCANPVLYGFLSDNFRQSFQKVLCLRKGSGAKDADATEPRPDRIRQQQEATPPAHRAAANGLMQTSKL

`C[C@@H](O)[C@@H]1NC(=O)[C@H](CCCCN)NC(=O)[C@@H](Cc2c[nH]c3ccccc23)NC(=O)[C@H](Cc2cccc3ccccc23)NC(=O)[C@@H](NC(=O)[C@@H](Cc2ccccc2)NC(=O)CN2CCN(CC(=O)O)CCN(CC(=O)O)CCN(CC(=O)O)CC2)CSSC[C@@H](C(=O)N[C@H](CO)[C@@H](C)O)NC1=O` [[^177Lu]Lu-DOTA-NOC, metal not drawn, reference compound] displayed a logD in data set [1] of -1.6 ± 0.1.

Turning to `C[C@@H](O)[C@@H]1NC(=O)[C@H](CCCCN)NC(=O)[C@@H](Cc2c[nH]c3ccccc23)NC(=O)[C@H](Cc2cccc3ccccc23)NC(=O)[C@@H](NC(=O)[C@@H](Cc2ccccc2)NC(=O)CN2CCN(CC(=O)O)CCN(CC(=O)O)CCN(CC(=O)O)CC2)CSSC[C@@H](C(=O)N[C@H](CO)[C@@H](C)O)NC1=O` [^natLu-DOTA-NOC, metal not drawn, reference compound], the IC50 at human SST5 was 4.8 nM; at human SST2 [2] it was 0.51 nM.

For `CC(C)[C@@H]1NC(=O)[C@H](CCCCN)NC(=O)[C@@H](Cc2c[nH]c3ccccc23)NC(=O)[C@H](Cc2ccc(O)c(I)c2)NC(=O)[C@@H](NC(=O)[C@@H](Cc2ccc(N)c(I)c2)NC(=O)CN2CCN(CC(=O)O)CCN(CC(=O)O)CCN(CC(=O)O)CC2)CSSC[C@@H](C(=O)N[C@H](C(N)=O)[C@@H](C)O)NC1=O` [^natLu-DOTA-ST8950, metal not drawn], on human SST2 [2], the 50% inhibitory concentration (IC50) turned out to be 0.37 nM.

For “(4-amino-3-iodo)-D-Phe-c[Cys-(3-iodo)-Tyr-D-Trp-Lys-Val-Cys]-Thr-NH2 [ST8950]”, the half-maximal inhibitory concentration (IC50) with human SST2 [3] was 0.28 nM.

For [^177Lu]Lu-DOTA-TATE, the “Kidney uptake reduction with basic amino acids” value in data set [4] is given as 40%.

Take “^natGa-DOTA-NOC: natGa complex of DOTA-NOC, values from”: in the data set with human SST2 [3], the IC50 is 0.7 nM.

Broadly, the logD is the decadic logarithm of the distribution of all forms, ionised or not, between an organic phase and buffer at a given pH. The term IC50 denotes the concentration needed to halve the response being measured.
